Experimental data reported in US20260184814A1, “BROADLY NE[…] INFLUENZA NEURAMINIDASE” (priority 2022, published 2026).
Values joined by “and” are separate entries in the source; they are usually repeats but may differ in a detail not shown here. Equal entries are not always repeated.

Assays:
[1] = biological target: human FcγRIIIa (F158 allele) (human) (UniProt P08637); experiment: MSD
[2] = biological target: human FcγRIIb (human) (UniProt P31994); experiment: MSD
[3] = biological target: human FcγRIIIb (human) (UniProt O75015); experiment: MSD
human FcγRIIIb (human), sequence (O75015 17-200 limits assumed): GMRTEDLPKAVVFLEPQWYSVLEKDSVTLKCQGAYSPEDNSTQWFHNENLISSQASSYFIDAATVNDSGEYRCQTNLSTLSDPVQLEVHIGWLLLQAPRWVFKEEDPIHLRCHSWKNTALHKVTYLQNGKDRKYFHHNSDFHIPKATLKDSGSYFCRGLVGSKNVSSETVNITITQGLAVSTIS

[4] = biological target: human FcγRIIa (H131 allele) (human) (UniProt P12318); experiment: MSD
human FcγRIIa (H131 allele) (human), sequence (P12318 34-218 limits assumed): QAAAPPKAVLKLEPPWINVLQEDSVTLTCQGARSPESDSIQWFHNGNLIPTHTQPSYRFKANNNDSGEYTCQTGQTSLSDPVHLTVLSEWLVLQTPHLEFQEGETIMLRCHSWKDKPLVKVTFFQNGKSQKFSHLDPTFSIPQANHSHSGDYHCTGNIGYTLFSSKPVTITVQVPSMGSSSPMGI

[5] = biological target: human C1q (human) (UniProt P02745); experiment: MSD
human C1q (human), sequence (P02745 23-245 limits assumed, chain 1 of 3): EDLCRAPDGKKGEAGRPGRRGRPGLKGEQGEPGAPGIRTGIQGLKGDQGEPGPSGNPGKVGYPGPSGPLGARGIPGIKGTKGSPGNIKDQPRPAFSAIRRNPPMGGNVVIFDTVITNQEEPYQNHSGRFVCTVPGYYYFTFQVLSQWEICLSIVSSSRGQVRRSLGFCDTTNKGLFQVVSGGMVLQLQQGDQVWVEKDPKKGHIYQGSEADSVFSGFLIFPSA
human C1q (human), sequence (P02746 28-253 limits assumed, chain 2 of 3, further chain): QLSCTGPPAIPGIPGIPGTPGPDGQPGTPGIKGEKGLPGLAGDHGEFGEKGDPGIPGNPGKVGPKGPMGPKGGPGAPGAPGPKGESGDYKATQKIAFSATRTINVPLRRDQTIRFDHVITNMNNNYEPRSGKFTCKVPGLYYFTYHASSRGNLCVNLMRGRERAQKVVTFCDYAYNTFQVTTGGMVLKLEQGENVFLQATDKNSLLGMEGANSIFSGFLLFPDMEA
human C1q (human), sequence (P02747 29-245 limits assumed, chain 3 of 3, further chain): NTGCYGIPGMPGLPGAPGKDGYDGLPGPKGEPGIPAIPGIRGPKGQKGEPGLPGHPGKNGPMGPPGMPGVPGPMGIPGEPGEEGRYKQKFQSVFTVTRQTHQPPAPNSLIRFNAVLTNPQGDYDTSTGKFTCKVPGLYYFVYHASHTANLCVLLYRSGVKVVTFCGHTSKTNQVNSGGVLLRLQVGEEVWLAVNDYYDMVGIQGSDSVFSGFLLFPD

[6] = biological target: human FcγRIIa (R131 allele) (human) (UniProt P12318); experiment: MSD
human FcγRIIa (R131 allele) (human), sequence (P12318 34-218 H167R limits assumed): as the sequence (P12318 34-218 limits assumed) above, with H134R counted along it

[7] = biological target: human FcγRIIIa (V158 allele) (human) (UniProt P08637); experiment: MSD
human FcγRIIIa (V158 allele) (human), sequence (P08637 17-208 F176V limits assumed): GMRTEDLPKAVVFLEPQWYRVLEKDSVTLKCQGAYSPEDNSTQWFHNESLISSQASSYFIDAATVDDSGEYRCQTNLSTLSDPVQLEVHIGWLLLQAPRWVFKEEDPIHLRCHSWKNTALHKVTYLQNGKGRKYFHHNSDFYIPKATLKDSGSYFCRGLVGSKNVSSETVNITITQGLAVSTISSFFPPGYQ

[8] = biological target: human FcγRIIIa (F158 allele) (human) (UniProt P08637); experiment: MSD [cont'd]
[9] = biological target: human FcγRIIb (human) (UniProt P31994); experiment: MSD [cont'd]
[10] = biological target: human FcγRIIIb (human) (UniProt O75015); experiment: MSD [cont'd]
[11] = biological target: human FcγRIIa (H131 allele) (human) (UniProt P12318); experiment: MSD [cont'd]
[12] = biological target: human FcRn (human) (UniProt P55899); experiment: MSD [cont'd]
human FcRn (human), sequence (P55899 24-297 limits assumed, chain 1 of 2): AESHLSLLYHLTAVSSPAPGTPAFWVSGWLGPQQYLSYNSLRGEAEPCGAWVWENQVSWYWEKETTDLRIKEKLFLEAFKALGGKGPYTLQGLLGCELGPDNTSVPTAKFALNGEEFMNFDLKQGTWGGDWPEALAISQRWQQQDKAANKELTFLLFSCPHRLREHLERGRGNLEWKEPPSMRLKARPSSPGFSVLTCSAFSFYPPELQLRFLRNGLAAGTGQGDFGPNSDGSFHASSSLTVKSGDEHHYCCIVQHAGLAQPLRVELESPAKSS
human FcRn (human), sequence (chain, as listed by the source limits assumed, chain 2 of 2): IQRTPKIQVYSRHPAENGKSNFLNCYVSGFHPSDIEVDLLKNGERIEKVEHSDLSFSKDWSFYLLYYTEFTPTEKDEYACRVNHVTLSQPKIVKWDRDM

[13] = biological target: human FcγRIIa (R131 allele) (human) (UniProt P12318); experiment: MSD [cont'd]
[14] = biological target: human FcγRIIIa (V158 allele) (human) (UniProt P08637); experiment: MSD [cont'd]
[15] = biological target: human FcγRIIIa (F158 allele) (human) (UniProt P08637)
[16] = biological target: human FcγRIIIa (V158 allele) (human) (UniProt P08637)
[17] = biological target: human FcRn (human) (UniProt P55899); experiment: MSD
[18] = biological target: human FcγRIIIa (F158 allele) (human) (UniProt P08637); remark: listed apart in the source
[19] = biological target: human FcγRIIb (human) (UniProt P31994)
[20] = biological target: human FcγRIIa (H131 allele) (human) (UniProt P12318)
[21] = biological target: human FcγRIIIa (V158 allele) (human) (UniProt P08637); remark: listed apart in the source
[22] = biological target: human C1q (human) (UniProt P02745); experiment: MSD [cont'd]
[23] = biological target: human FcRn (human) (UniProt P55899); experiment: MSD, pH 6 [cont'd]

human FcγRIIb (human), sequence (P31994 43-217 limits assumed): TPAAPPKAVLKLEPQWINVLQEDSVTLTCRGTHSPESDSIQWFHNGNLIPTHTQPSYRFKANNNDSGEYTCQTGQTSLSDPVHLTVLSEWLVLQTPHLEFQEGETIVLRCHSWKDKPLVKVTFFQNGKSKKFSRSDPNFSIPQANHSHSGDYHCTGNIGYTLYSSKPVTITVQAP
human FcγRIIIa (F158 allele) (human), sequence (P08637 17-208 limits assumed): as the sequence (P08637 17-208 F176V limits assumed) above, with V160F counted along it

G236A (antibody)
fold-change vs FY1 rIgG1m3 [1]: 0.6 fold and 0.8 fold | fold-change vs FY1 rIgG1m3 [2]: 0.6 fold and 1.1 fold | fold-change vs FY1 rIgG1m3 [3]: 0.82 fold | fold-change vs FY1 rIgG1m3 [4]: 5.9 fold and 12.1 fold | fold-change vs FY1 rIgG1m3 [5]: 0.59 fold and 0.36 fold | fold-change vs FY1 rIgG1m3 [6]: 4.8 fold and 6.3 fold | fold-change vs FY1 rIgG1m3 [7]: 0.4 fold and 0.6 fold

G236A_A330L_I332E-afuc (antibody)
fold-change (reference not given) [1]: 242 fold | fold-change (reference not given) [2]: 0.6 fold | fold-change (reference not given) [3]: 14.8 fold | fold-change (reference not given) [4]: 3.1 fold | fold-change (reference not given) [6]: 1.6 fold | fold-change (reference not given) [7]: 28 fold | fold to wt-fucose [8]: 259 fold | fold to wt-fucose [9]: 0.67 fold | fold to wt-fucose [10]: 14.1 fold | fold to wt-fucose [11]: 3.45 fold | fold to wt-fucose [12]: 1.09 fold | fold to wt-fucose [13]: 1.65 fold | fold to wt-fucose [14]: 32 fold | FcγR reporter signaling, fold to wt-fucose [cont'd] [15]: 14.8 fold | FcγR reporter signaling, fold to wt-fucose [cont'd] [16]: 5.27 fold

G236A_A330L_I332E_M428L_N434S (antibody)
fold-change vs FY1 rIgG1m3 [1]: 9.4 fold | fold-change vs FY1 rIgG1m3-MLNS [1]: 14.4 fold | fold-change vs wt [1]: 9.41 fold | fold-change to WT Fc [2]: 0.422 fold | fold-change vs FY1 rIgG1m3 [2]: 0.4 fold | fold-change vs FY1 rIgG1m3-MLNS [2]: 0.8 fold | fold-change vs wt [2]: 0.42 fold | fold-change vs FY1 rIgG1m3 [3]: 1.4 fold | fold-change vs FY1 rIgG1m3-MLNS [3]: 1.9 fold | fold-change vs wt [3]: 1.4 fold | fold-change to WT Fc [4]: 2.89 fold | fold-change vs FY1 rIgG1m3 [4]: 2.9 fold | fold-change vs FY1 rIgG1m3-MLNS [4]: 3.8 fold | fold-change vs wt [4]: 2.89 fold | fold-change vs FY1 rIgG1m3 [17]: 12.3 fold | fold-change vs FY1 rIgG1m3-MLNS [17]: 0.68 fold | fold-change vs FY1 rIgG1m3 [6]: 1.3 fold | fold-change vs FY1 rIgG1m3-MLNS [6]: 2.5 fold | fold-change vs wt [6]: 1.27 fold | fold-change to WT Fc [7]: 1.56 fold | fold-change vs FY1 rIgG1m3 [7]: 1.6 fold | fold-change vs FY1 rIgG1m3-MLNS [7]: 2.1 fold | fold-change vs wt [7]: 1.56 fold | FcγR reporter signaling, fold-change vs wt [cont'd] [18]: 13.5 fold | FcγR reporter signaling, fold-change vs wt [cont'd] [19]: 0.35 fold | FcγR reporter signaling, fold-change vs wt [cont'd] [20]: 2.32 fold | FcγR reporter signaling, fold-change vs wt [cont'd] [21]: 3.92 fold | fold-change vs wt [22]: 0 fold | fold-change vs wt [12]: 12.3 fold | fold-change to WT Fc [23]: 12.3 fold

G236A_A330L_I332E_M428L_N434S-afuc (antibody)
fold-change (reference not given) [1]: 256 fold | fold-change (reference not given) [2]: 0.4 fold | fold-change (reference not given) [3]: 12.3 fold | fold-change (reference not given) [4]: 2.3 fold | fold-change (reference not given) [6]: 1.1 fold | fold-change (reference not given) [7]: 30.2 fold | fold to wt-fucose [8]: 275 fold | fold to wt-fucose [9]: 0.41 fold | fold to wt-fucose [10]: 11.8 fold | fold to wt-fucose [11]: 2.56 fold | fold to wt-fucose [12]: 7.37 fold | fold to wt-fucose [13]: 1.2 fold | fold to wt-fucose [14]: 34.5 fold | FcγR reporter signaling, fold to wt-fucose [cont'd] [15]: 16.4 fold | FcγR reporter signaling, fold to wt-fucose [cont'd] [16]: 6.2 fold

G236A_R292P_I377N-afuc (antibody)
fold-change (reference not given) [1]: 14.8 fold | fold-change (reference not given) [2]: 0.6 fold | fold-change (reference not given) [3]: 1.2 fold | fold-change (reference not given) [4]: 5.5 fold | fold-change (reference not given) [6]: 1.4 fold | fold-change (reference not given) [7]: 7.1 fold | fold to wt-fucose [8]: 14.8 fold | fold to wt-fucose [9]: 0.6 fold | fold to wt-fucose [10]: 1.2 fold | fold to wt-fucose [11]: 5.54 fold | fold to wt-fucose [12]: 0.8 fold | fold to wt-fucose [13]: 1.35 fold | fold to wt-fucose [14]: 7.14 fold | FcγR reporter signaling, fold to wt-fucose [cont'd] [15]: 9.68 fold | FcγR reporter signaling, fold to wt-fucose [cont'd] [16]: 3.94 fold

GA (Fc-LS) (antibody)
fold-change vs FY1 rIgG1m3-MLNS [1]: 0.93 fold | fold-change vs FY1 rIgG1m3-MLNS [2]: 1.1 fold | fold-change vs FY1 rIgG1m3-MLNS [3]: 0.84 fold | fold-change vs FY1 rIgG1m3-MLNS [4]: 10 fold | fold-change vs FY1 rIgG1m3-MLNS [5]: 0.35 fold | fold-change vs FY1 rIgG1m3-MLNS [17]: 0.95 fold | fold-change vs FY1 rIgG1m3-MLNS [6]: 6.9 fold | fold-change vs FY1 rIgG1m3-MLNS [7]: 0.52 fold
